Results taken from patent US20170320910A1 (published 2017).
[ ]: non-standard residue; d: D form. Phe(2-Cl) = N[C@@H](Cc1ccccc1Cl)C(=O)O

Columns and labels:
VASP-EVH1 domain [1] = biological target: VASP-EVH1 domain (UniProt P50552); assay: ITC
VASP-EVH1 domain [2] = biological target: VASP-EVH1 domain (UniProt P50552); assay: fluorescence titration (FT)
VASP-EVH1 domain [3] = biological target: T1, VASP-EVH1 domain (UniProt P50552 1-115); assay: ITC
T1 construct: domain: EVH1

VASP-EVH1 domain [4] = biological target: T1, VASP-EVH1 domain; assay: fluorescence titration (FT)

T1 sequence (P50552 1-115 limits assumed): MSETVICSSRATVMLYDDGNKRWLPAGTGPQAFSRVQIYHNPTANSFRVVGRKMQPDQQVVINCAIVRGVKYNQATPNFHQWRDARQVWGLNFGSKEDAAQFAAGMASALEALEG
Sequence of VASP-EVH1 domain (UniProt P50552) (P50552 1-115 limits assumed): as above

## Ac-Phe(2-Cl)-[ProM-2][ProM-4]-OH
VASP-EVH1 domain [1]
  Kd: 9.7 µM
  ΔG: -6.84 kcal/mol
VASP-EVH1 domain [2]
  Kd: 1.6 µM
  ΔG: -7.91 kcal/mol

## Ac-Phe(2-Cl)-PP[ProM-1]-OH (peptide)
VASP-EVH1 domain [1]
  Kd: 14.1 µM
  ΔG: -6.62 kcal/mol
VASP-EVH1 domain [2]
  Kd: 3.2 µM
  ΔG: -7.5 kcal/mol

## Ac-Phe(2-Cl)-PP[ProM-9]-OH (peptide)
VASP-EVH1 domain [1]
  Kd: 8 µM
  ΔG: -6.96 kcal/mol
VASP-EVH1 domain [2]
  Kd: 0.4 µM
  ΔG: -8.77 kcal/mol

B1: Ac-Phe(2-Cl)-PPPP-OH (peptide)
peptide: Ac-[Phe(2-Cl)]PPPP-OH
SMILES: CC(=O)N[C@@H](Cc1ccccc1Cl)C(=O)N1CCC[C@H]1C(=O)N1CCC[C@H]1C(=O)N1CCC[C@H]1C(=O)N1CCC[C@H]1C(=O)O
VASP-EVH1 domain [3]
  Kd: 18 µM
  ΔG: -6.45 kcal/mol
VASP-EVH1 domain [4]
  Kd: 13 µM
  ΔG: -6.64 kcal/mol

B2: Ac-FPPPP-OH (peptide)
peptide: Ac-FPPPP-OH
notes: Starting ligand shortened to the FPPPP core motif; also called FPPPP core motif ligand
VASP-EVH1 domain [3]
  Kd: 1300 µM
  ΔG: -3.94 kcal/mol
VASP-EVH1 domain [4]
  Kd: 780 µM
  ΔG: -4.23 kcal/mol
